Data on one compound can be found in article PMC11941939, “Tackling Prostate Cancer with Theranostic E5B9-Bombesin Target Modules (TMs): From Imaging to Treatment with UniCAR T-Cells” (International Journal of Molecular Sciences, 2025).

One data set has as its system LNCaP tumors. Nature of the data set: Dynamic PET imaging, tumor uptake in LNCaP xenografts. As to conditions: LNCaP tumors, pre-dosing i.v. with 300 µg Ava-BBN2 15 min before radiotracer, n = 3, p < 0.01. It is filed as in vivo, mouse. As to the method:
(§1) For PET experiments and as prostate cancer xenograft models, male PC3 and LNCaP tumor-bearing BALB/c Nude mice were used (body weight: 22−24 g, Charles River Laboratories, Saint-Constant, QC, Canada). To generate the tumor xenografts, about 5−6 × 10^6 PC3 cells in 100 μL of PBS or 20−25 × 10^6 LNCaP cells in 200 μL of PBS/Matrigel (50/50) were subcutaneously injected into the left shoulder of male BALB/c Nude mice. For the androgen-dependent LNCaP model, a 1.5 mg pellet containing dehydroepiandrosterone DHEA (60-day release; Innovative Research of America, Sarasota, FL, U.S.A.) was implanted subcutaneously into the upper right flank shortly before LNCaP cell injection. PC3 tumors and LNCaP tumors reached sizes of ∼300−500 mm^3 after 3−5 weeks and 6−8 weeks, respectively, and were used for the in vivo experiments. PET imaging of E5B9-^68Ga-NOTA-BBN2 monomeric and dimeric TMs was performed on an INVEON® PET/CT scanner (Siemens Preclinical Solutions, Knoxville, TN, USA). Prior to radiotracer injection, mice were anesthetized through inhalation of isoflurane in 40% oxygen/60% nitrogen (gas flow 1 L/min), and body temperature was kept constant at 37 °C. The mice were placed in a prone position in the center of the field of view. A transmission scan for attenuation correction was not acquired. Mice were injected with 4−8 MBq of E5B9-^68Ga-NOTA-BBN2 or E5B9-^68Ga-NOTA-(BBN2)2 in 150 μL 10% EtOH/saline solution through a tail vein catheter. For blocking studies, PC3- and LNCaP-tumor-bearing […] mice were pre-dosed i.v. with 300 μg of Ava-BBN2 (15 min prior to radiotracer injection) in 50 uL saline. Data acquisition was performed over 60 min in 3D list mode. The dynamic list mode data were sorted into sinograms with 54 time frames (10 × 2, 8 × 5, 6 × 10, 6 × 20, 8 × 60, 10 × 120, 6 × 300 s). The frames were reconstructed using maximum a posteriori (MAP) as the reconstruction mode. No correction for partial volume effects was applied. The image files were processed using the ROVER v2.0.51 software (ABX GmbH, Radeberg, Germany). […] ROIs covered all visible tumor mass of the subcutaneous tumors, and the thresholds were defined by 50% of the maximum radioactivity uptake level. Mean standardized uptake values [SUVmean = (activity/mL tissue)/(injected activity/body weight), […]] were calculated for each ROI, and time−activity curves (TACs) were generated. For each experimental group (different radiotracers and mouse tumor models as well as control and blocking experiments), n = 3–6 mice were measured. […] Blocking experiments were conducted in the same mice: first, a control scan was measured and then repeated 1–2 days after in the presence of a blocking concentration of 300 μg of Ava-BBN2. All semi-quantified PET data are presented as means ± SEM. […]

Assay in data set [1]: as above
It is filed as in vivo, mouse. As to conditions: male, BALB/c Nude, mouse, LNCaP xenograft tumor, iv, total radioactivity; LNCaP tumor-bearing mice, PET, 60 min p.i., i.v., mean ± SEM, n = 3-4; read-out: SUVmean,60min tumor uptake. As to the method:
as §1

A short description of data set [2]: Dynamic PET imaging, tumor uptake in PC3 xenografts. As to conditions: male, BALB/c Nude, mouse, PC3 xenograft tumor, iv, total radioactivity; PC3 tumor-bearing mice, PET, 60 min p.i., i.v., mean ± SEM, n = 4-6; read-out: SUVmean,60min tumor uptake. It is filed as in vivo, mouse. As to the method: as §1
Data set [3] can be described thus: In vivo metabolic stability in venous blood plasma. On the set-up: species or system mouse. Particulars: BALB/c mice, i.v., 60 min p.i., radio-HPLC, mean ± SEM, n = 3, listed as dimeric TM. The method, then:
For metabolic stability studies in vivo, normal male BALB/c mice (body weight: 23−26 g, Charles River Laboratories, Saint-Constant, QC, Canada) were anesthetized through inhalation of isoflurane in 40% oxygen/60% nitrogen (gas flow 1 L/min) prior to i.v. radiotracer injection via the tail vein. Mice were injected with 28-50 MBq of E5B9-^68Ga-NOTA-BBN2 TM, E5B9-^68Ga-NOTA-(BBN2)2 TM, or ^68Ga-NOTA-Ava-Glu-(BBN2)2 dimer in 150 μL of 10% EtOH/saline. Venous blood samples were collected at 5, 15, 30, and 60 min post-injection via the mouse tail vein and further processed. Blood cells were separated by centrifugation (13,000 rpm × 5 min). The supernatant was removed, and the contained proteins were precipitated by the addition of 2 volume parts of methanol (2 vol of MeOH/1 vol of the sample). Another centrifugation step (13,000 rpm × 5 min) was performed to obtain plasma. The clear plasma supernatant was injected into a Shimadzu HPLC system. The samples were analyzed using a Phenomenex Luna 10u C18(2) 100A, 250 × 4.6 mm column, at a constant flow rate of 1 mL/min, and the following gradient with water/0.2% TFA as solvent A and acetonitrile as solvent B: 0−3 min 10% B, 10 min 30% B, 17 min 50% B, 23 min 70% B, and 27−30 min 90% B. For each radiotracer (monomers and dimers with and without E5B9) blood samples from n = 3 mice were analyzed. […]

On to `CC[C@H](C)[C@@H](CCC(=O)N[C@H](C(N)=O)C(C)(C)C)NC(=O)[C@H](Cc1c[nH]cn1)NC(=O)CN(C)C(=O)[C@@H](NC(=O)[C@H](C)NC(=O)[C@H](Cc1c[nH]c2ccccc12)NC(=O)[C@H](CCC(N)=O)NC(=O)CCCCNC(=O)CC[C@H](NC(=O)[C@H](CCCCn1nnc2c1-c1ccccc1CN(C(=O)CCNC(=O)CCOCCOCCOCCOCCNC(=O)CCN1C(=O)CC(SC[C@H](NC(=O)[C@H](Cc3ccc(O)cc3)NC(=O)[C@H](CCC(=O)O)NC(=O)[C@H](CC(=O)O)NC(=O)[C@@H](NC(=O)[C@@H](NC(=O)[C@H](CCC(=O)O)NC(=O)[C@@H]3CCCN3C(=O)[C@H](CC(C)C)NC(=O)[C@@H]3CCCN3C(=O)[C@H](CCCCN)NC(=O)[C@@H](N)CO)C(C)C)[C@@H](C)O)C(=O)O)C1=O)c1ccccc1-2)NC(=O)CCCCNC(=S)Nc1ccc(C[C@H]2CN(CC(=O)O)CCN(CC(=O)O)CCN2CC(=O)O)cc1)C(=O)NCCCCC(=O)N[C@@H](CCC(N)=O)C(=O)N[C@@H](Cc1c[nH]c2ccccc12)C(=O)N[C@@H](C)C(=O)N[C@H](C(=O)N(C)CC(=O)N[C@@H](Cc1c[nH]cn1)C(=O)N[C@H](CCC(=O)N[C@H](C(N)=O)C(C)(C)C)[C@@H](C)CC)C(C)C)C(C)C` (stereo partly shown) [dimeric ^68Ga-(BBN2)2 TM, metal not drawn], for which the “in vivo blocking of tumor uptake” value with LNCaP tumors was determined as 43 ± 3%. In addition, the SUV at 1 h worked out at 0.38 ± 0.03 SUV in data set [1] and 0.51 ± 0.1 SUV in data set [2]. Further, the “intact 68Ga-peptide remaining” value in data set [3] is on record as 93 ± 1%.
